{
  "source": "paper PMC9863593",
  "about": "“Crystal Structure of Allantoinase from Escherichia coli BL21: A Molecular Insight into a Role of the Active Site Loops in Catalysis” (Molecules, 2023)",
  "proteins": {"B1": {"name": "Allantoinase from Escherichia coli BL21 (enzyme)", "chain": "MSFDLIIKNGTVILENEARVVDIAVKGGKIAAIGQDLGDAKEVMDASGLVVSPGMVDAHTHISEPGRSHWEGYETGTRAAAKGGITTMIEMPLNQLPATVDRASIELKFDAAKGKLTIDAAQLGGLVSYNIDRLHELDEVGVVGFKCFVATCGDRGIDNDFRDVNDWQFFKGAQKLGELGQPVLVHCENALICDELGEEAKREGRVTAHDYVASRPVFTEVEAIRRVLYLAKVAGCRLHVCHVSSPEGVEEVTRARQEGQDVTCESCPHYFVLDTDQFEEIGTLAKCSPPIRDLENQKGMWEKLFNGEIDCLVSDHSPCPPEMKAGNIMEAWGGIAGLQNCMDVMFDEAVQKRGMSLPMFGKLMATNAADIFGLQQKGRIAPGKDADFVFIQPNSSYVLTNDDLEYRHKVSPYVGRTIGARITKTILRGDVIYDIEQGFPVAPKGQFILKHQQ", "modifications": "carbamylated lysine at 146 (Kcx146)", "notes": "Allantoinase (allB, ECD_00462) of E. coli BL21; predicted monomer of 453 amino acid residues, 49.6 kDa; Zinc-amended enzyme with 2 Zn ions per monomer; construct limits and tag are not described here; Residues 452-453 are said to be seen in the structure; also called EcALLase-BL21; E. coli BL21 ALLase"}},
  "target": "the molecule itself",
  "test": "crystal structure; hanging drop vapor diffusion, room temperature, 20% PEG8000, 100 mM CHES pH 9.5; protein at 30 mg/mL; space group C121; four monomers per asymmetric unit; 2.07 Å",
  "data": [
    {"protein": "B1", "values": [
      {"measurement": "stoichiometry N", "value": 4}
    ]}
  ]
}
